Among the data in article PMC3553500 are Kd values, retold here.

The test deals with GAPDH (purified recombinant, no tag named) (UniProt P04406). The experiment in a line: ELISA.

Sequence of NleB-FLAG (purified) (enzyme) (Q5XMK8 whole entry): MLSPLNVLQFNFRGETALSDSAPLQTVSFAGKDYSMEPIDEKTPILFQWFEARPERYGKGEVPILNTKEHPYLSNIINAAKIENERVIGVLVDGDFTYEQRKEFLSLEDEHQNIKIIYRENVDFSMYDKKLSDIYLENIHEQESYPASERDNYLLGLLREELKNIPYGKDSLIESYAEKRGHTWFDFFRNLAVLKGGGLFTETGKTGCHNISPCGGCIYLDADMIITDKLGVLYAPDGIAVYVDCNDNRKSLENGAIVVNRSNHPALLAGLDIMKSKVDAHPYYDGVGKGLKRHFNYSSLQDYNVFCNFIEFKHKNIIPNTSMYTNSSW

As a reminder, the Kd is the constant that tells how readily two partners part at equilibrium. Turning to NleB-FLAG (purified) (enzyme), the Kd worked out at 32 µM.
